Laboratory results published in patent US20030220482A1 (published 2003).

Assays:
CXCR4 chemokine receptor [1] = molecular target: T1, CXCR4 chemokine receptor (human, UniProt P61073 1-352); test: ^125I-SDF-1α competitive binding on CEM-T4 cells
T1 construct: whole, on cells
Method: CEM-T4 cells were harvested and washed twice with PBS. […] The incubation was terminated by separating the cells from the binding buffer by centrifugation and washing once with 500 μl of cold binding buffer. Bound ligands were quantitated by counting γ emissions.

CCR5 chemokine receptor = molecular target: T2, CCR5 chemokine receptor (UniProt P51681 1-352, limits assumed); test: competitive binding with radiolabeled MIP-1β on CCR5-transfected 293 cells
T2 construct: whole, on cells

CXCR4 chemokine receptor [2] = molecular target: T1, CXCR4 chemokine receptor; test: control in ^125I-SDF-1α competitive binding on CEM-T4 cells (FIG. 1)

T1 sequence (P61073 whole entry): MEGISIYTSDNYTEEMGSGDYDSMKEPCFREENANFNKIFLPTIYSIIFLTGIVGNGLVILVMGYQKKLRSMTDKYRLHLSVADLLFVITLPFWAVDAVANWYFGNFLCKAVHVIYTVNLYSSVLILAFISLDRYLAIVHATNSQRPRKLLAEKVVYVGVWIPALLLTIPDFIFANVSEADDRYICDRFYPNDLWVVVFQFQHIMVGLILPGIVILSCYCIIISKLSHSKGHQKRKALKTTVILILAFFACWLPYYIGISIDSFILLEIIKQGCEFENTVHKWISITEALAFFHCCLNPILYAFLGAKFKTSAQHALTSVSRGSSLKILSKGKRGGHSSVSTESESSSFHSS
T2 sequence (P51681 whole entry): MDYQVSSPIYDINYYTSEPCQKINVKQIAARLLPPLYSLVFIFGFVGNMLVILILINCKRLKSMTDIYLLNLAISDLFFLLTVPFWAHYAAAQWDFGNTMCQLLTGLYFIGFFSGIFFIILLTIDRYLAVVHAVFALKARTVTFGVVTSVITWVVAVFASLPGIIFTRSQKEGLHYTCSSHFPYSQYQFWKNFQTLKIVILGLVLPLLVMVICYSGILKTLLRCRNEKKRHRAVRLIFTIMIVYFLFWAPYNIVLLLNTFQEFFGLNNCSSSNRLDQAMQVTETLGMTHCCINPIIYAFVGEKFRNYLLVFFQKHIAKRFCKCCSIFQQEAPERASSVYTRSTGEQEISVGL

| Binder | binding result (CXCR4 chemokine receptor [1]) | binding result (CCR5 chemokine receptor) | binding result (CXCR4 chemokine receptor [2]) |
| --- | --- | --- | --- |
| LGASWHRPDK [V3 peptide (vMIP-II, 1-10)] | binds | no binding | – |
| viral Macrophage Inflammatory Protein-II (vMIP-II) (ligand, also called native vMIP-II) LGASWHRPDKCCLGYQKRPLPQVLLSSWYPTSQLCSKPGVIFLTKRGRQVCADKSKDWVKKLMQQLPVTAR | – | – | binds |
